Reference: patent US11597752B2, “Peptides and combination of peptides and scaffolds thereof for use in immunotherapy against colorectal carcinoma (CRC) and other cancers” (priority 2015, dated 2023)

Target: HLA-A*02:01 (Homo sapiens, UniProt P04439, D140Y/D185E/D98H/E176V/E277Q/G131W/G231S/I119V/I121R/I166T/I218V/L300P/L318F/N151K/N90K/P208A/P217A/Q86G/Q94H/R138H/R169H/T345S)
Experiment: MHC binding assay (UV-ligand exchange, beta2m ELISA, peptide exchange yield)
Conditions: binding to HLA-A*02:01, β2m ELISA
Description: Candidate peptides for T cell based therapies according to the present invention were further tested for their MHC binding capacity (affinity). The individual peptide-MHC complexes were produced by UV-ligand exchange, where a UV-sensitive peptide is cleaved upon UV-irradiation, and exchanged with the peptide of interest as analyzed. Only peptide candidates that can effectively bind and stabilize the peptide-receptive MHC molecules prevent dissociation of the MHC complexes. To determine the yield of the exchange reaction, an ELISA was performed based on the detection of the light chain (β2m) of stabilized MHC complexes. The assay was performed as generally described in Rodenko et al. (Rodenko et al., 2006).
96 well MAXISorp plates (NUNC) were coated over night with 2 ug/ml streptavidin in PBS at room temperature, washed 4× and blocked for 1 h at 37° C. in 2% BSA containing blocking buffer. Refolded HLA-A*02:01/MLA-001 monomers served as standards, covering the range of 15-500 ng/ml. Peptide-MHC monomers of the UV-exchange reaction were diluted 100 fold in blocking buffer. Samples were incubated for 1 h at 37° C., washed four times, incubated with 2 ug/ml HRP conjugated anti-β2m for 1 h at 37° C., washed again and detected with TMB solution that is stopped with […]. Absorption was measured at 450 nm. Candidate peptides that show a high exchange yield (preferably higher than 50%, most preferred higher than 75%) are generally preferred for a generation and production of antibodies or fragments thereof, and/or T cell receptors or fragments thereof, as they show sufficient avidity to the MHC molecules and prevent dissociation of the MHC complexes.

Row | Substance | Peptide exchange (MHC class I binding score, peptide exchange yield)
1 | 73 (YLFDIAVSM; listed as Homo sapiens) [compound 73] | “+++” (≥50 = +++)
2 | 48 (FLDASDPAL; listed as Homo sapiens) [compound 48] | “++” (≥20% = ++)
3 | 25 (SLADRLIGV; listed as Homo sapiens) [compound 25] | “++++” (≥75% = ++++)
4 | 27 (LLADEDSSYL; listed as Homo sapiens) [compound 27] | “++” (≥20% = ++)
5 | 19 (RLYTKLLNEA; listed as Homo sapiens) [compound 19] | “+++” (≥50 = +++)
6 | 86 (KVFPGKISV; listed as Homo sapiens) [compound 86] | “++” (≥20% = ++)
7 | 8 (ALMLQGVDLL; listed as Homo sapiens) [compound 8] | “+++” (≥50 = +++)
8 | 52 (ALDSSNSMQTI; listed as Homo sapiens) [compound 52] | “++” (≥20% = ++)
9 | 36 (GLLESPSIFNFTA; listed as Homo sapiens) [compound 36] | “+++” (≥50 = +++)
10 | 71 (RLWTEIPTAI; listed as Homo sapiens) [compound 71] | “+++” (≥50 = +++)
11 | 34 (ILLEKSVSV; listed as Homo sapiens) [compound 34] | “+++” (≥50 = +++)
12 | 51 (QVWEIQHTV; listed as Homo sapiens) [compound 51] | “++” (≥20% = ++)
13 | 41 (ILDDSFKLL; listed as Homo sapiens) [compound 41] | “++” (≥20% = ++)
14 | 110 (LLGELPRLLLL; listed as Homo sapiens) [compound 110] | “+++” (≥50 = +++)
15 | 104 (ILLTIKDDTIYL; listed as Homo sapiens) [compound 104] | “+++” (≥50 = +++)
16 | 58 (AMADKMDMSL; listed as Homo sapiens) [compound 58] | “++” (≥20% = ++)
17 | 92 (WIDDTSAFV; listed as Homo sapiens) [compound 92] | “+++” (≥50 = +++)
18 | 109 (ALDGDQMEL; listed as Homo sapiens) [compound 109] | “++” (≥20% = ++)

Row | Substance | Peptide exchange (MHC class I binding score, peptide exchange yield)
19 | 17 (ALAAARVEL; listed as Homo sapiens) [compound 17] | “+++” (≥50 = +++)
20 | 102 (KILVSLIEV; listed as Homo sapiens) [compound 102] | “+++” (≥50 = +++)
21 | 28 (ALTEIQEFI; listed as Homo sapiens) [compound 28] | “++++” (≥75% = ++++)
22 | 94 (KSMDIVLTV; listed as Homo sapiens) [compound 94] | “+++” (≥50 = +++)
23 | 40 (ALSNVIHKV; listed as Homo sapiens) [compound 40] | “++” (≥20% = ++)
24 | 87 (LLFDAPDLRL; listed as Homo sapiens) [compound 87] | “+++” (≥50 = +++)
25 | 66 (GLDDGPDFL; listed as Homo sapiens) [compound 66] | “++” (≥20% = ++)
26 | 24 (VLDGVLMEL; listed as Homo sapiens) [compound 24] | “+++” (≥50 = +++)
27 | 80 (QVDEVVDIMRV; listed as Homo sapiens) [compound 80] | “++” (≥20% = ++)
28 | 13 (FLLAEDTKV; listed as Homo sapiens) [compound 13] | “+++” (≥50 = +++)
29 | 44 (SLESKLTSV; listed as Homo sapiens) [compound 44] | “+++” (≥50 = +++)
30 | 61 (KLLKLFQGV; listed as Homo sapiens) [compound 61] | “+++” (≥50 = +++)
31 | 56 (VLFTDEGVPKFL; listed as Homo sapiens) [compound 56] | “++” (≥20% = ++)
32 | 20 (YLKDGDVML; listed as Homo sapiens) [compound 20] | “+++” (≥50 = +++)
33 | 15 (LQLDKEFQL; listed as Homo sapiens) [compound 15] | “+++” (≥50 = +++)
34 | 84 (SMVEDITGLRL; listed as Homo sapiens) [compound 84] | “+++” (≥50 = +++)
35 | 74 (YLMGFLHAV; listed as Homo sapiens) [compound 74] | “+++” (≥50 = +++)
36 | 106 (SLISEKILL; listed as Homo sapiens) [compound 106] | “+++” (≥50 = +++)

Now from value to substance:

Row | Peptide exchange (MHC class I binding score, peptide exchange yield) | Substance
37 | “+++” (≥50 = +++) | 153 (ILFSEDSTKLFV; listed as Homo sapiens) [compound 153]
38 | “+++” (≥50 = +++) | 139 (VLLNEILEQV; listed as Homo sapiens) [compound 139]
39 | “+” (≥10% = +) | 114 (TAVGHALVL; listed as Homo sapiens) [compound 114]
40 | “+++” (≥50 = +++) | 161 (FLKNELDNV; listed as Homo sapiens) [compound 161]
41 | “++++” (≥75% = ++++) | 125 (KLGDFGLLVEL; listed as Homo sapiens) [compound 125]
42 | “+++” (≥50 = +++) | 170 (ALAGGITMV; listed as Homo sapiens) [compound 170]
43 | “+++” (≥50 = +++) | 160 (KLLEFDQLQL; listed as Homo sapiens) [compound 160]
44 | “++” (≥20% = ++) | 128 (MLDDRAYLV; listed as Homo sapiens) [compound 128]
45 | “+++” (≥50 = +++) | 140 (LLNEILEQV; listed as Homo sapiens) [compound 140]
46 | “+++” (≥50 = +++) | 162 (KLMDYIDEL; listed as Homo sapiens) [compound 162]
47 | “+++” (≥50 = +++) | 179 (RLLSPLSSA; listed as Homo sapiens) [compound 179]
48 | “+++” (≥50 = +++) | 181 (NLFDLGGQYLRV; listed as Homo sapiens) [compound 181]
49 | “+++” (≥50 = +++) | 154 (KLPSETIFVGC; listed as Homo sapiens) [compound 154]
50 | “++” (≥20% = ++) | 130 (GLGGSQLIDTHL; listed as Homo sapiens) [compound 130]
51 | “++++” (≥75% = ++++) | 147 (TLTELRAFL; listed as Homo sapiens) [compound 147]
52 | “+++” (≥50 = +++) | 118 (LLADLKTMV; listed as Homo sapiens) [compound 118]
53 | “++++” (≥75% = ++++) | 134 (GVAGGSILKGV; listed as Homo sapiens) [compound 134]
54 | “+++” (≥50 = +++) | 167 (SVIDHIHLISV; listed as Homo sapiens) [compound 167]
55 | “++++” (≥75% = ++++) | 191 (QLFSEIHNL; listed as Homo sapiens) [compound 191]
56 | “+++” (≥50 = +++) | 184 (SLLDENNVSSYL; listed as Homo sapiens) [compound 184]
57 | “++” (≥20% = ++) | 113 (ILYDLQQNL; listed as Homo sapiens) [compound 113]
58 | “++” (≥20% = ++) | 159 (VLVDDDGIKVV; listed as Homo sapiens) [compound 159]
59 | “+++” (≥50 = +++) | 175 (TLLGGKEAQALGV; listed as Homo sapiens) [compound 175]
60 | “+++” (≥50 = +++) | 158 (GLLDPSVFHV; listed as Homo sapiens) [compound 158]
61 | “++” (≥20% = ++) | 116 (LVYQFVHPI; listed as Homo sapiens) [compound 116]
